These are literature values, as cited in PMC4370575.

One data set has as its target UbcH5c~Ub (Homo sapiens) (UniProt P61077).
The target in a further data set is Mms2 (Homo sapiens) (UniProt Q15819).
Sequence of UniProt Q15819 (Q15819 2-145): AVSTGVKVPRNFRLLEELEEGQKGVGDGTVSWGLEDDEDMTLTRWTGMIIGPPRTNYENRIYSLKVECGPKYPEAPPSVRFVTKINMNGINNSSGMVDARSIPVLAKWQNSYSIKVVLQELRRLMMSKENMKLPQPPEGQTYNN

In general, Kd refers to the constant that tells how readily two partners part at equilibrium. Turning to UbcH5c~Ub (from UniProt P61077), in the data set with UbcH5c~Ub (Homo sapiens), the Kd was 25 µM.

Ubc13 (from UniProt P61088): the equilibrium dissociation constant (Kd) with Mms2 (Homo sapiens) is 2 µM.
